This is an account of results in patent US20090324622A1 (CELLDEX THERAPEUTICS, published 2009).

For assay [1], the target named is T1, human macrophage mannose receptor (human, UniProt P22897 19-1456).
T1 construct: whole, on cells; also called MR; MMR
T1 sequence (looked up): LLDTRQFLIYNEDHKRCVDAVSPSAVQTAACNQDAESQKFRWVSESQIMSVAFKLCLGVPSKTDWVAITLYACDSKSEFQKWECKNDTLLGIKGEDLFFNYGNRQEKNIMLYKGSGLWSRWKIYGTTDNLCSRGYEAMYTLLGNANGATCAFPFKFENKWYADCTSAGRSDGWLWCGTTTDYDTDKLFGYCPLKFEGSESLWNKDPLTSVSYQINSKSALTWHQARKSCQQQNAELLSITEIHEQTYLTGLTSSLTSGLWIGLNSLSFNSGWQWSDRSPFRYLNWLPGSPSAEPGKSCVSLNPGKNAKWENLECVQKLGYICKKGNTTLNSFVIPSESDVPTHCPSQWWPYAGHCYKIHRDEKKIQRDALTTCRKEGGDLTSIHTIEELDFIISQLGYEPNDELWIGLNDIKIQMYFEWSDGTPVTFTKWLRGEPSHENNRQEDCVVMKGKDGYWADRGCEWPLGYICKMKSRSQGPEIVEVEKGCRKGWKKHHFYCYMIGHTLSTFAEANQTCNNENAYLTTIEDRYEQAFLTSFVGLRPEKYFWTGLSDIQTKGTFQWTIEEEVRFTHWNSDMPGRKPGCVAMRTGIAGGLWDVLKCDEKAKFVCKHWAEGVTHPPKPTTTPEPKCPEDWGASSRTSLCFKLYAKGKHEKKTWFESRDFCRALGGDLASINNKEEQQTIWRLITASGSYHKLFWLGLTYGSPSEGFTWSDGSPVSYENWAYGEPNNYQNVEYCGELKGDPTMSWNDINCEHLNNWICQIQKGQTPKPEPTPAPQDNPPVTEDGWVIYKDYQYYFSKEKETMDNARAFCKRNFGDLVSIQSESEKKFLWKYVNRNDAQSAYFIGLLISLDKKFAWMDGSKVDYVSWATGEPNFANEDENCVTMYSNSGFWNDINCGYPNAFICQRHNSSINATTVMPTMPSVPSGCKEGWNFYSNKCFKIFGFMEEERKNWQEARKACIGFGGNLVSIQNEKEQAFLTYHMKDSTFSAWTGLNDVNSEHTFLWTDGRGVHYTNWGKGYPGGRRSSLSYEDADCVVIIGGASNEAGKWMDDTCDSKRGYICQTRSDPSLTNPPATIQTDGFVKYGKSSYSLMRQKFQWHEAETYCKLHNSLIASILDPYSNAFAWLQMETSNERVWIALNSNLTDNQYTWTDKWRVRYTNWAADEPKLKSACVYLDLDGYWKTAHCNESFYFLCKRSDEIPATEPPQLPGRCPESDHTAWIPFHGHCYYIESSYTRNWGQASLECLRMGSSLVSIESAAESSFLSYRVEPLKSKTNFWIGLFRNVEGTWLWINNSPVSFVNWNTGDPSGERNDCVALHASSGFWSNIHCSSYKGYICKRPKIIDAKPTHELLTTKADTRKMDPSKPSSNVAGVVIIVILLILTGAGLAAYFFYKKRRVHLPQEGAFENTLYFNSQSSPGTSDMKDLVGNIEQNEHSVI
The experiment in a line: flow cytometry on cultured human DCs. The method, then:
Monocyte-derived DCs were exposed either to B11 sfv-βhCG or βhCG-B11 in PBS-BSA buffer for 45 minutes at 37° C. and allowed to mature overnight in the presence of CD40L. Harvested DCs were then washed and stained with mouse anti-βhCG followed by goat anti-hu IgG (Fc)-PE conjugate. Stained cells were analyzed on a flow cytometer (BD-LSR). Approximately, 10,000 events were collected for each sample. Background autofluorescence and isotype matched antibody staining served as controls. Based on the mean fluorescence intensity (MFI) (data not shown), B11 sfv-βhCG binding to MR expressed on DC is similar to that of βhCG-B11.

The target in assay [2] is T1, human macrophage mannose receptor. Briefly: in situ staining of MR on human tissue cryosections (immunohistochemistry). The source says:
Using the anti-MR antibody as a probe, in situ staining of MR on human dermal DCs and macrophages in section of various human tissues was examined. Human tissue cryosections were stained with anti-MR human antibody B11. DCs present in the dermal layer of the skin were clearly labeled (data not shown) with the B11 antibody. It is noted that there was binding to DCs in the dermal layer of skin. […] These studies have been repeated with the βhCG-B11 with identical results.

B1: βhCG-B11 construct (whole human anti-mannose receptor antibody B11 with βhCG fused to the CH3 end of the heavy chain) (antibody)
heavy: not shown
light: DIQMTQSPSSLSASVGDRVTITCRASQGISRWLAWYQQKPEKAPKSLIYAASSLQSGVPSRFSGSGSGTDFTLTISGLQPEDFATYYCQQYNSYPRTFGQGTKVEIK
notes: Antibody-antigen fusion expressed in CHO cells; also called B11-βhCG vaccine conjugate; B11-βhCG conjugate
On to B1, for which, in assay [1], the binding result is recorded as “binds”.

B2: human monoclonal antibody B11 (anti-mannose receptor) (antibody, V domains shown)
VH: EVQLVQSGAEVKKPGESLRISCKGSGDSFTTYWIGWVRQMPGKGLEWMGIIYPGDSDTIYSPSFQGQVTISADKSISTAYLQWSSLKASDTAMYYCTRGDRGVDYWGQGTLVTVSS
VL: B1 light
notes: Fully human whole antibody with a kappa light chain; also called B11 mAb; anti-MR B11 HuMAb
As for B2, the binding result in assay [2] is recorded as “binds”.

B3: B11sfv-βhCG construct (single chain B11 antibody, VL and VH, with βhCG fused to the carboxy terminus) (scFv)
scFv: DIQMTQSPSSLSASVGDRVTITCRASQGISRWLAWYQQKPEKAPKSLIYAASSLQSGVPSRFSGSGSGTDFTLTISGLQPEDFATYYCQQYNSYPRTFGQGTKVEIKGGGGSGGGGSGGGGSEVQLVQSGAEVKKPGESLRISCKGSGDSFTTYWIGWVRQMPGKGLEWMGIIYPGDSDTIYSPSFQGQVTISADKSISTAYLQWSSLKASDTAMYYCTRGDRGVDYWGQGTLVTVSSGSTGGGGSSSKEPLRPRCRPINATLAVEKEGCPVCITVNTTICAGYCPTMTRVLQGVLPALPQVVCNYRDVRFESIRLPGCPRGVNPVVSYAVALSCQCALCRRSTTDCGGPKDHPLTCDDPRFQDSSSSKAPPPSLPSPSRLPGPSDTPILPQ
notes: also called B11 scfv-βhCG; pB11sfv-βhCG
For B3, the binding result in assay [1] is listed as “binds”.
